# Measured values as given in patent US20060216716A1, “Immunologic activity measures for t helper on-associated conditions” (priority 2003, published 2006).
# B1: interferon-gamma (protein, UniProt P01579 24-161, looked up)
# Interferon gamma: QDPYVKEAENLKKYFNAGHSDVADNGTLFLGILKNWKEESDRKIMQSQIVSFYFKLFKNFKDDQSIQKSVETIKEDMNVKFFNSNKKKRDDFEKLTNYSVTDLNVQRKAIHELIQVMAELSPAAKTGKRKRSQMLFRG
# notes: pro-inflammatory stimulant cytokine added to the blood sample
# Experiments:
# CXCL9 = experiment: activated CXCL9 levels (interferon-gamma and tumor necrosis factor-alpha stimulation) in Crohn's Disease subjects by medication usage; assay type: in vivo; details: disease active or in remission, FIG. 7
# Protocol: (§1) Following informed consent, a heparinized whole blood sample. […] Finally, and the plate is again washed repeatedly.
# In a subsequent experiment, a combination of stimulating cytokines (interferon-gamma and tumor necrosis factor-alpha) was administered to Crohn's Disease patients and the effects of medication studied.
# CXCL10 = details: within individual Crohn's Disease subjects; interferon-gamma activation; FIG. 4
# Protocol: A pro-inflammatory stimulant, e.g., interferon-gamma, is added at a concentration of approximately 1000 units/cc and incubated at 37° C. […] At an appropriate time interval, e.g., 3 hours, the samples are centrifuged to allow collection of the plasma, or serum (the non-cell containing portion of the blood). […] In a standard sandwich ELISA detection, the plasma/serum is allowed to incubate with a capture antibody. Then, the sample is removed, the plate is washed multiple times and an antibody labeled with an enzyme is applied (detection antibody). Finally, and the plate is again washed repeatedly. Depending on the enzyme used for the detection antibody, a color change becomes evident over time after addition of the proper enzyme substrate, which can then be detected using specified light wavelength measurements. The light absorbance can be measured using a standard ELISA plate reader, which in turn produces a number. By comparing this number to a standard curve for CXCL10, a quantified amount of CXCL10 can be determined, or alternatively, the absorbance number itself may be used.
# WBC [1] = experiment: ex vivo whole blood stimulation, CXCL10 release by WBC (ELISA); assay type: cell-based; details: 3 hours post stimulation; subjects with Crohn's Disease or Ulcerative Colitis; FIG. 1
# Excerpt: as §1
# This response also occurs in normal individuals as well.
# WBC [2] = experiment: ex vivo blood stimulation, CXCL9 levels; assay type: cell-based
# Excerpt: as §1
# The effects of different forms of activation and a combination of activating cytokines on CXCL9 levels in Crohn's Disease subjects was also studied.
molecule,measurement,setting,value
S=c1nc[nH]c2nc[nH]c12 [6 MP],effect of medication usage on activated CXCL9 levels,CXCL9,brought about a change
azathioprine/6MP,effect of medication on activated CXCL10 levels over time,CXCL10,significant changes
B1,CXCL10 response following stimulation,WBC [1],a larger spread and an increase in the measurable values
same,serum CXCL9 concentration levels after stimulation,"WBC [2]; Crohn's Disease subjects, FIG. 6",increased
same,serum CXCL9 concentration levels after stimulation,"WBC [2]; Ulcerative Colitis subjects, active and inactive disease, FIG. 8",increased
